In US9845340B2, “Peptides that specifically bind HGF receptor (cMet) and uses thereof” (Dyax Corp., priority 2003, dated 2017):

Columns and labels:
[1] = molecular target: T1, 3T3 cells that over-express human cMet (Homo sapiens, UniProt P08581); assay: Whole cell ELISA of peptide-displaying phage; assay type: cell-based; settings: phage isolate; 3T3 cells expressing human cMet vs. non-expressing 3T3 cells
T1 construct: expressed in transfected cells; host or cells: 3T3 cells
In short: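 Phage displaying peptides, pre-blocked 1 h at 37 °C, incubated 1 h at RT on glutaraldehyde-fixed (0.1%, 12 min, 37 °C) cMet-overexpressing 3T3 cells (10^5 per well). Binding read out by HRP anti-M13 antibody after PBST washing.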

[2] = molecular target: cMet-Fc fusion protein (Homo sapiens, UniProt P08581); assay: Protein phage ELISA: peptide-displaying phage binding to soluble cMet-Fc versus TRAIL-Fc; settings: phage isolate; cMet-Fc vs. TRAIL-Fc
Sequence of cMet-Fc fusion protein (P08581 25-307 limits assumed): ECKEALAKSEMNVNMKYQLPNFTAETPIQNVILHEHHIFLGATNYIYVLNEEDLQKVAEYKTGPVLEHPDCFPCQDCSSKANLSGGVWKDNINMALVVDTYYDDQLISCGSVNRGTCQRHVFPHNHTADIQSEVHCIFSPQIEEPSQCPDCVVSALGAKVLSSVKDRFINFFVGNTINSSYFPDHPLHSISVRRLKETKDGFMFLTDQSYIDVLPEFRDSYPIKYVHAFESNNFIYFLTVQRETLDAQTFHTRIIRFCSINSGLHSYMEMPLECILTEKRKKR
Sequence of cMet-Fc fusion protein (P08581 with tags, fused parts or gaps limits assumed): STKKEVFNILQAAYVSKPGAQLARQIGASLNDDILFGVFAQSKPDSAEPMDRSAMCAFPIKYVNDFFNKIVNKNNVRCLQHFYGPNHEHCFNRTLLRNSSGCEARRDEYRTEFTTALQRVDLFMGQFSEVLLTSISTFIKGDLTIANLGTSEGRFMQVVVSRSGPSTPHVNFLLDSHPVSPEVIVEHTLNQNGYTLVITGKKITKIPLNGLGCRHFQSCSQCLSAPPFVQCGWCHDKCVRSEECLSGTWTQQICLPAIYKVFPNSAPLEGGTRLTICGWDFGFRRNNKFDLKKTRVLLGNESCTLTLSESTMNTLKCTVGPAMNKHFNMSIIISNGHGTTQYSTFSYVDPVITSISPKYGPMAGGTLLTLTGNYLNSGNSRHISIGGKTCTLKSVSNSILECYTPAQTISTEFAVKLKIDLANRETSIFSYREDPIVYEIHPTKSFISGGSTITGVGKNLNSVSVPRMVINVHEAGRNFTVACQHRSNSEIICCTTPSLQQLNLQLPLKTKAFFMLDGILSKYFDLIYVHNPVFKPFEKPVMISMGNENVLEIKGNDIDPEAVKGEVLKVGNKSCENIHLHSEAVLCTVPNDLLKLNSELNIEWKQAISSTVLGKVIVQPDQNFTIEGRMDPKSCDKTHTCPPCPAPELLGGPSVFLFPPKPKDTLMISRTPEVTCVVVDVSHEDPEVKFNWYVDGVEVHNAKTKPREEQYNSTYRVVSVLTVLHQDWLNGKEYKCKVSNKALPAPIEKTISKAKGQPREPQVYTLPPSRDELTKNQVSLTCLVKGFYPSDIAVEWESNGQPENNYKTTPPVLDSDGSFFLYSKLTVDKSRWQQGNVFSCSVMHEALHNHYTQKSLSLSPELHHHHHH
In short: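 Phage displaying selected peptides were incubated 2 h at room temperature on wells coated with 0.5 μg/mL cMet-Fc, with TRAIL-Fc coating as the unrelated-Fc specificity control.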

T1 sequence (P08581 25-1390): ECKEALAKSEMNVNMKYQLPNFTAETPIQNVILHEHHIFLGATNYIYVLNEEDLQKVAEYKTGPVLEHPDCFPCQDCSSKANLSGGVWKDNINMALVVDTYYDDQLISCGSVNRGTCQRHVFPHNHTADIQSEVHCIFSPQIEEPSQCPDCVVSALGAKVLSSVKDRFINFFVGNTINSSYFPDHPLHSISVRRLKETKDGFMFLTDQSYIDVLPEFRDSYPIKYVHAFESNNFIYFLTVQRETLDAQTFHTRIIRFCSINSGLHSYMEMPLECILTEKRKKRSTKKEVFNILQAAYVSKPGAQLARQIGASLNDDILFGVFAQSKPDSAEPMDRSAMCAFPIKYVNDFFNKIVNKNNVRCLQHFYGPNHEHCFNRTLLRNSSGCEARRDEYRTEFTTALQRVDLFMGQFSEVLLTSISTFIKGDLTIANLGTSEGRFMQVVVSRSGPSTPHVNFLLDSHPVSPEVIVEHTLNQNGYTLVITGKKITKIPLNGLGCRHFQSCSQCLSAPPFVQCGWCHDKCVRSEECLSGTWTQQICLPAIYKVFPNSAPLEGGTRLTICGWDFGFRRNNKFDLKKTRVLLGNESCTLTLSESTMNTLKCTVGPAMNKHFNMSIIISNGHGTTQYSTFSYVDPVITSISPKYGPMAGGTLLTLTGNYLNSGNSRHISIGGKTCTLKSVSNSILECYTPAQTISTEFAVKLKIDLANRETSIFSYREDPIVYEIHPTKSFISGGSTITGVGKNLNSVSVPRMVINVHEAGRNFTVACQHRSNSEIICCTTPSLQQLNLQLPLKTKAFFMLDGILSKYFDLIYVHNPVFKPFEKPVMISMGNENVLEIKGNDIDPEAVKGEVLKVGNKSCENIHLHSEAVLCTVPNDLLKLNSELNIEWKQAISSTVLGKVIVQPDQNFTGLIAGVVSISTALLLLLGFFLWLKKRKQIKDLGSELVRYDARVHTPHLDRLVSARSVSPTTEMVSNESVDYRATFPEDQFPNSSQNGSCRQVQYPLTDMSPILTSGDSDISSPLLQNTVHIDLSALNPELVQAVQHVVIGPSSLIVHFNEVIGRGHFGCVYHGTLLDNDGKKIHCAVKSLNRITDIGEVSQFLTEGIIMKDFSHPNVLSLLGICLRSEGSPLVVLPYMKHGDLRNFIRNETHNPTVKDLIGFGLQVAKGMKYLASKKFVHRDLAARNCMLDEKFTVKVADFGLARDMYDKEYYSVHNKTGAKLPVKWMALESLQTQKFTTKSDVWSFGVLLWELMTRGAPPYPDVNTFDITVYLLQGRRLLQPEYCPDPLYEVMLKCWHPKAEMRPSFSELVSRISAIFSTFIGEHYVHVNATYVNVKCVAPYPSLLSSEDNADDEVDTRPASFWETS

| Compound | WC ELISA [1] | Protein ELISA [2] |
| --- | --- | --- |
| GSLYRCLGEASPTPPCAYEAP (Synthetically generated cMet-binding peptide sequence) [SEQ ID NO: 380] | 1.37 fold over background | 4.0 fold over background |
| AGLPKCSGPPWFSCYYGGT (Synthetically generated cMet-binding peptide sequence) [SEQ ID NO: 066] | 1.30 fold over background | 13.5 fold over background |
| CC[C@H](C)[C@H](NC(=O)[C@H](CO)NC(=O)CNC(=O)[C@H](C)NC(C)=O)C(=O)N[C@@H](CCC(N)=O)C(=O)N[C@H]1CSSC[C@@H](C(=O)N[C@H](C(=O)N2CCC[C@H]2C(=O)N[C@@H](Cc2ccc(O)cc2)C(=O)NCC(=O)N[C@H](C(=O)NCC(=O)NCC(=O)NCC(=O)N[C@@H](CCCCNC(=O)c2ccc3c(c2)C(=O)OC32c3ccc(O)cc3Oc3cc(O)ccc32)C(N)=O)[C@@H](C)O)[C@@H](C)O)NC(=O)[C@H](CCC(=O)O)NC(=O)[C@H](Cc2ccccc2)NC(=O)[C@H](CO)NC(=O)[C@@H]2CCCN2C(=O)[C@@H]2CCCN2C(=O)CNC(=O)[C@H](C(C)C)NC1=O [SEQ ID NO: 074] | 1.37 fold over background | 6.7 fold over background |
| AGTWHCAGPPWFTCYMDGT (Synthetically generated cMet-binding peptide sequence) [SEQ ID NO: 069] | 1.30 fold over background | 9.0 fold over background |
| AGDGWCMAWPEICEWLGT (Synthetically generated cMet-binding peptide sequence) [SEQ ID NO: 014] | 1.33 fold over background | 4.8 fold over background |
| AGDWHCQGPPAFMCWMIGT (Synthetically generated cMet-binding peptide sequence) [SEQ ID NO: 065] | 1.30 fold over background | 4.7 fold over background |
| CC[C@H](C)[C@H](NC(=O)[C@H](Cc1c[nH]c2ccccc12)NC(=O)[C@H](Cc1c[nH]cn1)NC(=O)CNC(=O)[C@H](C)NC(C)=O)C(=O)N[C@H]1CSSC[C@@H](C(=O)N[C@@H](CCC(N)=O)C(=O)N[C@@H](Cc2c[nH]c3ccccc23)C(=O)N[C@@H](Cc2c[nH]cn2)C(=O)NCC(=O)N[C@H](C(=O)NCC(=O)NCC(=O)NCC(=O)N[C@@H](CCCCNC(=O)c2ccc3c(c2)C(=O)OC32c3ccc(O)cc3Oc3cc(O)ccc32)C(N)=O)[C@@H](C)O)NC(=O)[C@H](CO)NC(=O)[C@H](Cc2ccccc2)NC(=O)[C@H]([C@@H](C)O)NC(=O)[C@@H]2CCCN2C(=O)[C@@H]2CCCN2C(=O)CNC(=O)[C@H](C(C)C)NC1=O [SEQ ID NO: 071] | 1.40 fold over background | 13.5 fold over background |
| AGNWICNLSEMRCYPKGT (Synthetically generated cMet-binding peptide sequence) [SEQ ID NO: 013] | 1.40 fold over background | 3.9 fold over background |
| CC(=O)N[C@@H](C)C(=O)NCC(=O)NCC(=O)N[C@@H](Cc1c[nH]c2ccccc12)C(=O)N[C@@H](CCC(=O)O)C(=O)N[C@H]1CSSC[C@@H](C(=O)NCC(=O)N[C@@H](Cc2ccc(O)cc2)C(=O)N[C@@H](Cc2ccc(O)cc2)C(=O)NCC(=O)N[C@H](C(=O)NCC(=O)NCC(=O)NCC(=O)N[C@@H](CCCCNC(=O)c2ccc3c(c2)C(=O)OC32c3ccc(O)cc3Oc3cc(O)ccc32)C(N)=O)[C@@H](C)O)NC(=O)[C@H](CCC(N)=O)NC(=O)[C@H](Cc2ccccc2)NC(=O)[C@H](Cc2c[nH]c3ccccc23)NC(=O)[C@@H]2CCCN2C(=O)[C@@H]2CCCN2C(=O)CNC(=O)[C@H]([C@@H](C)O)NC1=O [SEQ ID NO: 067] | 1.47 fold over background | 8.0 fold over background |
| AGETFCSGWPTFECMQWGT (Synthetically generated cMet-binding peptide sequence) [SEQ ID NO: 095] | 1.23 fold over background | 16.2 fold over background |
| CC[C@H](C)[C@H](NC(=O)[C@H](Cc1c[nH]c2ccccc12)NC(=O)CNC(=O)[C@H](C)NC(C)=O)C(=O)N[C@@H](CO)C(=O)N[C@H]1CSSC[C@@H](C(=O)N[C@@H](Cc2c[nH]c3ccccc23)C(=O)N2CCC[C@H]2C(=O)NCC(=O)NCC(=O)N[C@H](C(=O)NCC(=O)NCC(=O)NCC(=O)N[C@@H](CCCCNC(=O)c2ccc3c(c2)C(=O)OC32c3ccc(O)cc3Oc3cc(O)ccc32)C(N)=O)[C@@H](C)O)NC(=O)[C@H](C)NC(=O)[C@H](Cc2ccccc2)NC(=O)[C@H]([C@@H](C)O)NC(=O)[C@@H]2CCCN2C(=O)[C@@H]2CCCN2C(=O)CNC(=O)[C@H](C)NC1=O [SEQ ID NO: 056] | 1.23 fold over background | 14.3 fold over background |
| GSEYSCRTSRCIFSAP (Synthetically generated cMet-binding peptide sequence) [SEQ ID NO: 006] | 1.33 fold over background | 3.2 fold over background |

Results, then the compound that gave them:

| WC ELISA [1] | Protein ELISA [2] | Compound |
| --- | --- | --- |
| 1.20 fold over background | 4.3 fold over background | AQFDRYWHFAWMDVSFSSGQSG (Synthetically generated cMet-binding peptide sequence) [SEQ ID NO: 465] |
| 1.37 fold over background | 3.3 fold over background | CC[C@H](C)[C@H](NC(=O)[C@@H](NC(=O)[C@H](CCC(=O)O)NC(=O)CNC(=O)[C@H](Cc1c[nH]c2ccccc12)NC(=O)[C@H](Cc1c[nH]cn1)NC(=O)[C@@H](NC(=O)[C@H](CC(C)C)NC(=O)CNC(=O)[C@H](CC(=O)O)NC(=O)[C@H](Cc1c[nH]cn1)NC(=O)[C@@H]1CCCN1C(=O)[C@H](Cc1c[nH]c2ccccc12)NC(=O)[C@H](CCC(N)=O)NC(=O)[C@H](C)NC(C)=O)C(C)C)C(C)C)C(=O)N[C@@H](CCSC)C(=O)N[C@@H](CC(C)C)C(=O)N[C@@H](CCCNC(=N)N)C(=O)N[C@@H](Cc1ccccc1)C(=O)NCC(=O)NCC(=O)NCC(=O)N[C@@H](CCCCNC(=O)c1ccc2c(c1)C(=O)OC21c2ccc(O)cc2Oc2cc(O)ccc21)C(N)=O [SEQ ID NO: 479] |
| 1.30 fold over background | 5.5 fold over background | AQRDYLFYWNDGSYQPWQVFVG (Synthetically generated cMet-binding peptide sequence) [SEQ ID NO: 493] |
| 1.53 fold over background | 3.2 fold over background | CC[C@H](C)[C@H](NC(=O)[C@@H](NC(=O)[C@H](CCC(=O)O)NC(=O)[C@H](Cc1c[nH]cn1)NC(=O)[C@@H](NC(=O)[C@H](C)NC(=O)[C@@H]1CCCN1C(=O)[C@H](CC(N)=O)NC(=O)[C@H](Cc1ccccc1)NC(=O)[C@H](CCCCN)NC(=O)[C@H](Cc1ccccc1)NC(=O)[C@H](Cc1c[nH]cn1)NC(=O)[C@@H](NC(=O)[C@@H](NC(=O)[C@H](C)NC(=O)[C@H](CCSC)NC(=O)[C@H](CC(=O)O)NC(=O)[C@H](CCC(=O)O)NC(=O)[C@@H](NC(=O)[C@H](CCC(N)=O)NC(=O)[C@H](C)NC(C)=O)C(C)C)[C@@H](C)O)C(C)C)[C@@H](C)O)C(C)C)C(=O)N[C@@H](Cc1c[nH]c2ccccc12)C(=O)NCC(=O)NCC(=O)NCC(=O)N[C@@H](CCCCNC(=O)c1ccc2c(c1)C(=O)OC21c2ccc(O)cc2Oc2cc(O)ccc21)C(N)=O [SEQ ID NO: 492] |
| 1.37 fold over background | 35.3 fold over background | CC[C@H](C)[C@H](NC(=O)[C@@H]1CCCN1C(=O)[C@H](Cc1ccc(O)cc1)NC(=O)[C@H](CO)NC(=O)[C@H](CCSC)NC(=O)[C@H](C)NC(=O)[C@H](CC(C)C)NC(=O)[C@H](CCCCN)NC(=O)[C@H](Cc1ccc(O)cc1)NC(=O)[C@H](Cc1c[nH]cn1)NC(=O)[C@H](C)NC(=O)[C@H](CCC(=O)O)NC(=O)[C@@H]1CCCN1C(=O)[C@H](CCCNC(=N)N)NC(=O)[C@H](CCC(N)=O)NC(=O)[C@H](C)NC(C)=O)C(=O)N[C@H](C(=O)N1CCC[C@H]1C(=O)N[C@@H](CCCNC(=N)N)C(=O)N[C@H](C(=O)N[C@@H](CCCCN)C(=O)N[C@H](C(=O)NCC(=O)NCC(=O)NCC(=O)N[C@@H](CCCCNC(=O)c1ccc2c(c1)C(=O)OC21c2ccc(O)cc2Oc2cc(O)ccc21)C(N)=O)[C@@H](C)O)[C@@H](C)O)[C@@H](C)CC [SEQ ID NO: 452] |
| 1.80 fold over background | 3.0 fold over background | AQHMDPAEWDWFIRIYSPVVNP (Synthetically generated cMet-binding peptide sequence) [SEQ ID NO: 487] |
| 1.23 fold over background | 3.3 fold over background | AQWNQWDEFMWFLNPPPIGLMW (Synthetically generated cMet-binding peptide sequence) [SEQ ID NO: 480] |
| 1.30 fold over background | 5.0 fold over background | CC(=O)N[C@@H](C)C(=O)N[C@@H](CCC(N)=O)C(=O)N[C@@H](CC(=O)O)C(=O)N[C@@H](CC(C)C)C(=O)N[C@@H](CCCCN)C(=O)N1CCC[C@H]1C(=O)N[C@@H](Cc1c[nH]c2ccccc12)C(=O)N[C@H](C(=O)N[C@@H](C)C(=O)NCC(=O)N[C@@H](Cc1c[nH]c2ccccc12)C(=O)N[C@@H](CCC(=O)O)C(=O)N1CCC[C@H]1C(=O)N1CCC[C@H]1C(=O)N[C@@H](Cc1c[nH]c2ccccc12)C(=O)N[C@@H](CC(C)C)C(=O)N[C@@H](Cc1c[nH]c2ccccc12)C(=O)N[C@H](C(=O)N[C@@H](CC(=O)O)C(=O)N[C@@H](CCCNC(=N)N)C(=O)NCC(=O)N1CCC[C@H]1C(=O)NCC(=O)NCC(=O)NCC(=O)N[C@@H](CCCCNC(=O)c1ccc2c(c1)C(=O)OC21c2ccc(O)cc2Oc2cc(O)ccc21)C(N)=O)[C@@H](C)O)[C@@H](C)O [SEQ ID NO: 461] |
| 1.40 fold over background | 3.0 fold over background | AQKTWFLEADLFQMFQEVTWQF (Synthetically generated cMet-binding peptide sequence) [SEQ ID NO: 490] |
